Consider two molecules from US20170107294A1, “ANTI-CD14 ANTIBODIES AND USES THEREOF” (Nordlandssykehuset HF, priority 2014, published 2017).

Data set [1] relates to porcine whole blood. In words: rMil2 combined with C5 inhibitor OmCI: cytokine production in porcine whole blood ex vivo. Format: cell-based. Particulars: E. coli-incubated porcine whole blood. The procedure: (§1) The whole blood model has been described in detail previously (36). Fresh human venous or porcine arterial blood was drawn directly into tubes containing the anticoagulant lepirudin (Pharmion) at a final concentration of 50 mg/ml. In 1.8-ml Cryo Tube vials (Nunc, Roskilde, Denmark), the blood was preincubated with up to 20 mg/ml anti-human CD14 (r18D11 or 18D11), or 50 mg/ml anti-porcine CD14 (rMil2 or Mil2) at 37° C. for 10 min prior to an additional 2-h incubation in the presence of 100 ng/ml ultrapure LPS from Escherichia coli 0111:B4 (InvivoGen, San Diego, Calif.) for human blood or 1 3 105/ml heat-inactivated E. coli (strain LE392, ATCC33572) for porcine blood. As negative controls, PBS with MgCl2 and CaCl2 (Sigma-Aldrich) and isotype controls were used. Adverse effects were tested using nonactivated whole blood samples. After the addition of 10 mM (human) or 20 mM (porcine) EDTA, plasma was gained by 15 min centrifugation at 3220 3 g and 4° C. Levels of TNF, IL-6, and IL-1b in human plasma were determined using Bioplex technology (Bio-Rad Laboratories AB). Levels of TNF, IL-1b, and IL-8 in porcine plasma were determined using ELISA (Quantikine, R&D Systems, Minneapolis, Minn.). Platelet count was quantified by impedance using a CELL-DYN Sapphire hematology analyzer (Abbott Laboratories, Abbott Park, Ill.).
Whole blood was incubated with 1 3 106 E. coli per milliliter for 2 h at 37° C. in the absence or presence of inhibitors and controls. TNF, IL-1b, and IL-8 blood was analyzed as described above.

For data set [2], the target named is T1, porcine CD14 (Sus scrofa, UniProt F6PST4).
T1 sequence (F6PST4 21-373): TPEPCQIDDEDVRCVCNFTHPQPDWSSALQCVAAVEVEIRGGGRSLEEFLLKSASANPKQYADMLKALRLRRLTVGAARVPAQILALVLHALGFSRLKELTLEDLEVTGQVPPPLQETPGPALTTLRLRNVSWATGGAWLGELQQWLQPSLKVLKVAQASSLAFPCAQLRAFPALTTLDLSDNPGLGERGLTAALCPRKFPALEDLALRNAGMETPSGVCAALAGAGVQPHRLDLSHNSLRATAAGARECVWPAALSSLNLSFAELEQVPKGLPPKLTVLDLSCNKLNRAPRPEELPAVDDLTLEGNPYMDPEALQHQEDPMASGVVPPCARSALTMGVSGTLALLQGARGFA
In words: CD14 binding in flow cytometry, porcine whole blood (competition with FITC-conjugated Mil2). More on the design: human monocyte and porcine granulocyte populations were selected based on the forward scatter-side scatter dot plot; endogenous in cells; host or cells: granulocytes in fresh porcine whole blood (EDTA); binding sites blocked (competition with FITC-conjugated Mil2 in binding to CD14) / direct binding to porcine granulocytes: dose or concentration left out as unconfirmed. Particulars: for binding sites blocked (competition with FITC-conjugated Mil2 in binding to CD14): Ab, granulocytes in porcine whole blood. The protocol:
Fresh human or porcine whole blood was drawn into tubes containing the anticoagulants lepirudin (Refludan; Pharmion, Copenhagen, Denmark) or EDTA, respectively. Blood samples were preincubated for 10 min with Ab, #20 mg/ml anti-human CD14 Abs r18D11, 18D11 F(ab)92 (batch 2068, lot 1383), or isotype controls raNIP and mIgG1 F(ab)92 (lot 1501), or […] anti-porcine CD14 Abs rMil2, Mil2 (lot 1106), or the isotype controls 4770 RECOMBINANT ANTI-CD14 Abs Downloaded from University of Oslo, Library of Medicine and Health Science on Jan. 24, 2014 for IgG2/4 and mIgG2b, eculizumab (Soliris) and mIgG2b (lot 1631), respectively. Endotoxin-free Dulbecco phosphate buffered saline, PBS (Sigma-Aldrich), was used for diluting the Abs. Subsequently, blood samples were incubated for another 15 min in the presence of detection Ab, 10 mg/ml 18D11 (batch 719, lot 3110) or 150 mg/ml FITC-conjugated Mil2 (batch 1107). Their binding was detected either by using a secondary PEconjugated anti-mouse IgG or through direct FITC fluorescence. Erythrocytes were lysed using FACS Lysing solution (BD Biosciences, Franklin Lakes, N.J.; human blood) or a solution of 0.16 M ammonium chloride, 10 mM sodium bicarbonate, 0.12 mM EDTA (Tritiplex III) and 0.04% (v/v) paraformaldehyde (porcine blood). In subsequent flow cytometry analyses, human monocyte and porcine granulocyte populations were selected based on the forward scatter-side scatter dot plot, and CD14 binding was recorded as mean or median fluorescence intensity, respectively. In contrast to humans, porcine CD14 is constitutively expressed on mature granulocytes (32, 33). Fluorescence intensities in the presence of the fluorescently labeled Abs only were set to 100%. Flow cytometry analyses on human samples were performed using an LSRII and FACSDiva software version 5.0.3; porcine samples were analyzed on a FACSCalibur using Cell Quest Pro version 5.2.1 for data acquisition (all from BD Biosciences).
In general terms: In flow cytometry, cells or beads pass a laser one at a time.

On the set-up of data set [3]: species or system Norwegian domestic piglets (Sus scrofa domesticus). The following applies: in vivo, iv; for heart rate (effect in words): 0.32 mg/kg. The procedure: (§2) In vivo application of anti-porcine CD14 Abs Norwegian domestic piglets (Sus scrofa domesticus, outbred stock) with a weight of 2.2 kg were isolated at the day of intervention. Anesthesia was induced with 5% sevoflurane in a mixture of air and oxygen until sleep. After establishment of an i.v. line, the piglets received fentanyl (15-20 mg/kg) were tracheotomized in the supine position, and a microcuffed endotracheal tube from Kimberly-Clark (Roswell, GA) with inner diameter of 4 mm was inserted. Maintenance anesthesia was provided with an infusion of fentanyl (50 mg/kg/h, and isoflurane 1-2% in oxygen-enriched air administered from a Leon plus ventilator from Heinen and Loevenstein (Bad Ems, Germany). An artery line was inserted in the right or left carotid artery for blood sampling during the experiments and for continuous measurement of mean artery pressure. The piglets were monitored with electrocardiography and pulse oximetry. Ventilator settings were adjusted to maintain 7.40 pH and oxygen saturation above 96%. Hemodynamic parameters were collected using ICUpilot software, CMA Microdialysis (Stockholm, Sweden) every 30 s. To compensate for hydration needs, the animals received a background infusion of isotonic sodium glucose solution, Salidex (Braun Medical A/S, Vestskogen, Norway) at 10 ml/kg/h. To compare the effect of the Mil2 and the rMil2 on healthy piglets, increasing amounts of a stock solution of 1 mg/ml rMil2 or Mil2 (batch 1106) were injected i.v. into two piglets at indicated times to a maximum dose of 5.36 mg/kg, and arterial blood samples were collected, in tubes containing the anticoagulants EDTA or citrate. To investigate the biological effect of rMIL2 on the inflammatory response, two piglets underwent the E. coli sepsis regimen as described previously (17). One control piglet was gives saline, and one piglet was given a bolus dose of 5 mg/kg rMil2 before infusion of the bacteria.

Data set [4] deals with porcine whole blood. In words: Adverse (IgG-Fc mediated) effects in nonactivated porcine whole blood. The following applies: absence of inflammatory stimuli; for spontaneous IL-8 release: 50 mg/ml; for platelet counts / platelet aggregation: up to 71.4 mg/ml. Format: cell-based. The procedure:
as §1

For a further data set, the system named is E. coli. The following applies: whole pig blood; cited from earlier work.
For data set [5], the target named is T1, porcine CD14. Nature of the data set: Leukocyte CD14 expression before and after rMil2 bolus in a piglet, flow cytometry. Format: in vivo, Norwegian domestic piglets (Sus scrofa domesticus). More on the design: endogenous in cells. The following applies: after bolus dose of 5 mg/kg. The protocol:
as §2, with “To compare the effect of the Mil2 and the rMil2 on healthy piglets, increasing amounts of a stock solution of 1 mg/ml rMil2 or Mil2 (batch 1106) were injected i.v. into two piglets at indicated times to a maximum dose of 5.36 mg/kg, and arterial blood samples were collected, in tubes containing the anticoagulants EDTA or citrate. To investigate the biological effect of rMIL2 on the inflammatory response, two piglets underwent the E. coli sepsis regimen as described previously (17). One control piglet was gives saline, and one piglet was given a bolus dose of 5 mg/kg rMil2 before infusion of the bacteria.” left out

Data set [6] has as its system porcine whole blood. Nature of the data set: Whole blood ex vivo model of inflammation, E. coli-induced cytokine release in porcine blood. Format: cell-based. Particulars: heat-inactivated E. coli. The procedure: as §1
For data set [7], the system named is E. coli-induced cytokine response. Nature of the data set: In vivo E. coli sepsis regimen in piglets, cytokine response. The arrangement: species or system Norwegian domestic piglets (Sus scrofa domesticus). The following applies: bolus 5 mg/kg before i.v. E. coli; vs saline control piglet. The procedure: as §2

B1: Mil2: mouse anti-porcine CD14 IgG2b clone Mil2 (Serotec), original murine clone (antibody, V domains shown)
VH: QVRLQQPGAELVRPGASVKLSCKASGYTFTTYWMNWVKQRPEDGLEWIGRIDPYDSETHYNQNFKDKAILTVDKSSSTAYMQLSSLTYEDSAVYYCTRKEGRQWGAYFDYWGQGTTLTVSSA
VL: DIVMTQSQKFMSTSVGDRVSVTCKASQYVGTNVAWYQQKPGQSPKALIQSASYRCSGVPDRFTGSGSGTDFTLTISNVQSEDLADYFCQQYNTYVTFGGGTKLELKR
As for B1, in the data set on porcine whole blood [1], the “IL-1b release (effect in words)” value was “not significantly reduced”, the “IL-8 release (effect in words)” value is given as “markedly enhanced the release” and the “TNF release (effect in words)” value was “significantly reduced”. The “binding sites blocked (competition with FITC-conjugated Mil2 in binding to CD14)” value with porcine CD14 [2] is reported as around 50%. In data set [3], the maximum heart rate is recorded as around 300 beats/min and the “heart rate (effect in words)” value is reported as “caused an increase in heart rate”. In addition, in the data set with porcine whole blood [4], the “spontaneous IL-8 release” value is listed as “strong spontaneous IL-8 release” and the “platelet counts / platelet aggregation” value was “dose-dependent drop in platelet counts”. Also, in the data set with E. coli, the E. coli survival entry is listed as “does not affect E. coli survival”.

B2: rMil2: recombinant anti-porcine CD14 mouse/human chimeric IgG2/4 Ab; VL SEQ ID NO:3, VH SEQ ID NO:4 (antibody, V domains shown)
VH: MGWSCIILFLVATATGVHSQVRLQQPGAELVRPGASVKLSCKASGYTFTTYWMNWVKQRPEDGLEWIGRIDPYDSETHYNQNFKDKAILTVDKSSSTAYMQLSSLTYEDSAVYYCTRKEGRQWGAYFDYWGQGTTLTVSSA
VL: MGWSCIILFLVATATGVHSDIVMTQSQKFMSTSVGDRVSVTCKASQYVGTNVAWYQQKPGQSPKALIQSASYRCSGVPDRFTGSGSGTDFTLTISNVQSEDLADYFCQQYNTYVTFGGGTKLELKR
modifications: human IgG2/4 constant regions
Take B2: the “reduction in leukocyte CD14 expression (saturation of CD14)” value in the data set with porcine CD14 [5] is on record as 94%. In the data set with porcine whole blood [1], the “IL-1b release (effect in words)” value is on record as “significantly reduced the production”; the “IL-8 release (effect in words)” value is “seemed to be substantial, but did not reach statistical significance”; the “TNF release (effect in words)” value is “significantly reduced”. Moreover, in the data set with porcine CD14 [2], the “binding sites blocked (competition with FITC-conjugated Mil2 in binding to CD14)” value was around 50%. In the data set with porcine CD14 [2] (not shown), the “direct binding to porcine granulocytes” value is recorded as “saturated”. Besides, in the data set with porcine CD14 [2] (porcine whole blood), the “displacement of original clone Mil2 from CD14+ granulocytes” value was “effectively bound to and displaced the original clone”. In addition, in the data set on porcine whole blood [6], the “block of IL-1b release compared with Mil2” value is “as effective as Mil2” and the “inhibition of TNF release compared with Mil2” value was “slightly less inhibitory”. Also, the “heart rate (effect in words)” value in data set [3] is recorded as “but not rMil2, caused an increase in heart rate”. In data set [7], the “IL-1b reduction (area under the curve)” value was found to be 89%, the “IL-6 reduction (area under the curve)” value is on record as 88%, the “IL-8 reduction (area under the curve)” value was determined as 100% and the “TNF reduction (area under the curve)” value came to 71%. In addition, in the data set with porcine whole blood [4], the “spontaneous IL-8 release” value was “Neither IL-8 secretion nor platelet drop nor aggregation was observed” and the “platelet counts / platelet aggregation” value is reported as “Neither IL-8 secretion nor platelet drop nor aggregation was observed”.
